The text below walks through data of the DeepSol protein solubility set.

The nature of this data set: soluble on expression in E. coli; label from the status in PepcDB or PDB records.
Take “MSGALKENSGKPSEVEYTHFKDLQALEMERGRLYETIVVTWDDSMVGNAAPIGVLCTGDDTVTLYLYQGTRTVENVLNNGRFTVNVTLDPLIFTDSTLGDLEEDMFSHYRDFLHLRGADAFFTAEVVSVKKLVKRDRFGESELHVVKARAGDVMRAESFRMALNRGIYAVIESLIAYTRAEFSDPLVLRERIAEMNRVARKVGGPREKEAMRRIIQALESKIS”: the “soluble on expression in E. coli” value was “not soluble”.

Regarding “MGSDKIHHHHHHMSPSIYPKSNYPDAAILSRLAQQIKGWGKALGFARVGICDTDLTSEEIKLQTWLDKGYHGEMAYMASHGMMRARPQELHPGTVRVISVRMDYLPPEAGFATNLTDPNLGYISRYAGGRDYHKLIRARLKKLGDHISAELIALGFDAADFRPFVDSAPVLERPLAEKAGIGWTGKHSLILNHDSGSWFFLGELFINLPLPVDIPIQEACNTCVACMTSCPTGAIVEPYVVDGRRCISYLTIELQGAIPEEFRPLMGNRIYGCDDCQLVCPINRQAPLTTEIDFHIRPQLKQPDLLSLFAWSEAEFLKQTEGSAIRRIGHKRWLRNIAVALGNAPANPIILEALTNRQESADVDEMVLEHIQWAIDAQQSRLAASNTLVQQKSRRQTARMVRIIEKGLPRDA”, the “soluble on expression in E. coli” value is listed as “not soluble”.

Take “MGSDKIHHHHHHMLGFRALAKPGAISMWVPQYSHQTQPVYLMIADALEQDIESGRLAEGDRLPTLKDLAEALNVTPGTVGRAYDEAAKRGLVAGEVGRGTFVRQLRQPLPAPSVPTPVAGESSQIDLSIIKPNDAHMSEWLGTAISELAASSDLGQVLDYVTEGGHTSHKQAGATWIQRWLPDARWQQVVLTAGAQHGLLVAISSLSKSDDVVLCESLCYPGIISLAHSLGRRLRGVAMDEHGLIPEALRAACLEHRPSLLVCVTTHQNPTNSIMPPARRQAIAEIAREFDLFIVDDDIYGFLEPSPDYKPLAAYAPERSVYLTSLSKSVLPALRIGYLYAPPQTLSRLSSMVRSSVWMPSPLMAQLASNLINSGKADQLVRMQQQEAAARQHMAREILGQYKIRSQPHSFHIWLELPEPWTSDEFANLARDNGVTVVSGSQFLPERSHATSGVRIALMAPSRQELGFALTKLASLLDSPEPRLFY”: the “soluble on expression in E. coli” value is on record as “not soluble”.

Take “NIPEIENANLKPALKDSVLPDGFYSTTNHPTHVKVNDEWIEVANPKMDAVIVVYPEEKRAETKVIRKVKKGDFVLIGHNGIRVMPPEKSREAGQLFEFMNSEVSSEKPKEAIIKRIAKEMHEIREEYKKTGTGGIAIVGGPAIIHTGGGPALAKMVELGYIQAILAGNALATHDIESALYGTSLGVNIKTAKPVTGGHKHHIYAINAINDAGNIKNAVESGVLKEGIMYQCIKNNIPYVLAGSIRDDGPIPDVITDSMVAQDKMRTTVMDKKMVIMLSTLLHSVATGNLMPSYIKTVCVDIQPSTVTKLMDRGTSQAIGVVTDVGVFLVLLLKELER”: the “soluble on expression in E. coli” value was “not soluble”.

For “MKVHNDFTLYWRVFPSGKKVVYYYAYDESGKRLMGRSTGETNLTSARVKCNKLLKEGELVPNKNHVPTFAEYAEGWWEWETCAYLKKRRKRYSLTQTYADNNKKNLKNHLLPFFGNMPMNKITKIEVEDFFDALIEKEYQNTSINGFYGTLKTMLIEAVERNIIPKDPTDKMGRLVNDRRAIKIITPEEFKKLFVGDWRRVWESDRLSYTANKLAALTGMRASEVVGLKGSFVYDEHIYLCMQYDDYGYRPTKTKDKHNIPLTSDMINELKELKRMNGDGFVFSLDGGATPICRNTVYKHFHRALRNIGITEDEISERHLHLHAWRHFFNTEMLKGGLTVTQAQAVTGHKSERMTEWYCHFDPTEFAKAKEVQEALLRPAQKKAAKEEKAGAKTSGNKDKAVKVIPFPRKENKTAGEETQASLILPLPIFKAPAGLRRELLFLPFQHFPFFFLNCRFVPFLSATGHGIFKAGMGESMEEYLTIFEVAELTKYTVGTLRKFVQKRRVAFHKWGRSLRFRRAEIELWMKMGCGKAVYLPADGDGQTKASAMEIGAES”, the “soluble on expression in E. coli” value is “not soluble”.

Consider “MSLSQHIRKLDSDVSERLKSQACTVSLASAVREIVQNSVDAHATTIDVMIDLPNLSFAVYDDGIGLTRSDLNILATQNYTSKIRKMNDLVTMKTYGYRGDALYSISNVSNLFVCSKKKDYNSAWMRKFPSKSVMLSENTILPIDPFWKICPWSRTKSGTVVIVEDMLYNLPVRRRILKEEPPFKTFNTIKADMLQILVMHPMISLNVQYTDKLRINTEVLFRSKNITEGLTKHQQMSQVLRNVFGAEGHHHHHH”, for which the “soluble on expression in E. coli” value is given as “soluble”.

For the sequence “MAHHHHHHMAESAVLTPLSARHTVSPRDRSALATGISTLSSPTEETIEVDGATTTPSLPPETRVNVTEKLSDDGAERWPGDPEPPSQGCVASSSAANAHLPISSPALVRDEGHAHITAADYADRQRLLYHITYLSTQLQRAQLQVEDLTRTVCVLRGAVGDSAAATVAKAAVKEDATSAAVLAAKEERDVHAALQASLALFDPVIAQTQIYRLDDALAQVGLLREAELAQLRKANAALQDHRTFVSRLSEELAQLRSKTATLEQEKQRTETQLTAAVLEVEQLRYEERRLNNRVAGLEELAQDGTWMSNVRVVSAAAASTQASVSQQQPLVRLEREEQLARQALLLHVFWDPVLIAFDAGLTWLSDSAALQAKGSAAQEQPVAPGGAKAFVGERDLISLAQAGILVETPALPTDADLLLLQRQQEEVTQLRSRVQLLQERNRVGQLENERLQFLYEGEVRRNERMAKDHAAQLQQAYDEVVRDRQYIMNKLKQEVEDQIRLAYEDGRAYEQSRAKSRRSQKAFRAGNAVL”, the “soluble on expression in E. coli” value is listed as “not soluble”.

As to “MFNLRPAATLVALAAALSSLPALAEEARYNQISLRAEVNQEVQRDLMLVTLYTEAQDSDPARLAAQITETLNKALGQARQVKDVKIRQGSRNSYPVYDDKGQKITGWRERAELRLESADFAVLSKLTGELLTDLKMGGMDFSISPSTRKTSEDALLKDAVTAFKARAQLVTEALGGKGYKLVNLNLNTSGYPQPYLRAPVMMMAKSSRDESAPTPDVEAGTSQVSVAADGVIEVAIPLEHHHHHH”, the “soluble on expression in E. coli” value is listed as “soluble”.

On to “MPNTPHTMNLYIKNIAQLVTCQGSEAKHGREAMGQIHTIEGPAAVVIRDGIIAFAGRMADVAPSMTEGCRELDATGRCVLPGFVDSHTHLVFGGYREDEFQWRLAGDSYMSIMERGGGIASTMRATRSESEDELKASARRHLSNMMKMGVTTVEAKSGYGMNLETELKQLRVVRDLQDEQPLDLYSTFMGAHDTAPEYKGRPTEFIEYLCREVLPEVVRQNLAECCDIFTEKGVFDHEQTRRMLTAAKEAGLSVKMHADEIVPFGGAELAAELGCLSADHLLRISDAGIKALAESNTVATLLPCTAFSLRADYAPARKMIDAGCAVALGSDLNPGSCFSASVPLMFALATLYMGMTVEEAITALTINGAAAIGRADTIGSIEPGKKGDLVVLQYPSYKFLSYHFGMNLVEHTVKGGRVVYTNS”, for which the “soluble on expression in E. coli” value is recorded as “not soluble”.

“MSLWKNFNFVTKYFTKRRQRYITKTIAMNQQEFQLREITYQDIKDLLAIEREVYAGELPWTMSAFMAELGSKAPHLYLLAAINGKTVGFIGCRIQGTDAHITNVAVHTAYQGLGLGRSLIEETRIFAKKNRCETLSLEVRMSNVKAQRLYRKIGFVSQTVKKGYYDENNEDALEMIIDLKEEEGHHHHHH”: the “soluble on expression in E. coli” value was “soluble”.

For the sequence “KVGILQFVTHDALDQIEKGIEDGLKEAGYKGDKVQITLLNAEGDQSKIQTMSKQLVNDKNDVVIGIATPAAQGLAAATKDIPVIMGAISDPVGAKLVKNLKHPEGNVTGTSNQVPIKQTVELVKSLTPNAKTIGILYASSEDNSQSQVESFKKYAEQDGLNVIEYAVPSTNEINTTMSVMTGKVDAIWTPQDNTIASSFSTVISLANQAKIPVYTTVDTMVKEGGLASVAQNQYELGKATARSAIKVLKGKKVKDIPVDVIDDGTPTLNLKVARDLNITIPDDVLKQSDIAVKADK”, the “soluble on expression in E. coli” value is “not soluble”.

As for “MSIRSLGYLRIEATDMAAWREYGLKVLGMVEGKGAPEGALYLRMDDFPARLVVVPGEHDRLLEAGWECANAEGLQEIRNRLDLEGTPYKEATAAELADRRVDEMIRFADPSGNCLEVFHGTALEHRRVVSPYGHRFVTGEQGMGHVVLSTRDDAEALHFYRDVLGFRLRDSMRLPPQMVGRPADGPPAWLRFFGCNPRHHSLAFLPMPTSSGIVHLMVEVEQADDVGLCLDRALRRKVPMSATLGRHVNDLMLSFYMKTPGGFDIEFGCEGRQVDDRDWIARESTAVSLWGHDFTVGARG”, the “soluble on expression in E. coli” value is listed as “soluble”.

Turning to “MGSSHHHHHHSSGLVPRGSHMASKSFQLLEPYNIKANLRPYQIKGFSWMRFMNKLGFGICLADDMGLGKTLQTIAVFSDAKKENELTPSLVICPLSVLKNWEEELSKFAPHLRFAVFHEDRSKIKLEDYDIILTTYAVLLRDTRLKEVEWKYIVIDEAQNIKNPQTKIFKAVKELKSKYRIALTGTPIENKVDDLWSIMTFLNPGLLGSYSEFKSKFATPIKKGDNMAKEELKAIISPFILRRTKYDKAIINDLPDKIETNVYCNLTPEQAAMYKAEVENLFNNIDSVTGIKRKGMILSTLLKLKQIVDHPALLKGGEQSVRRSGKMIRTMEIIEEALDEGDKIAIFTQFVDMGKIIRNIIEKELNTEVPFLYGELSKKERDDIISKFQNNPSVKFIVLSVKAGGFGINLTSANRVIHFDRWWNPAVEDQATDRVYRIGQTRNVIVHKLISVGTLEEKIDQLLAFKRSLFKDIISSGDSWITELSTEELRKVIELSVGGY”, the “soluble on expression in E. coli” value is recorded as “soluble”.

For the sequence “MDERWMVMKITIVFENHAGYRKGLIGYHGFSALVEANGYRVLVDTGTDGKVLLNNMSELGISPDDIDALFITHGHYDHTGGLRELLSARTEALDIYAHPGIFKRRLALKPKKREIGIPFTREELEELGGKFILSDKSKEILPGFISSGEIERITWDRAVGYFPDGSKDPVRDDMALIVEEGSKSVVITGCGHSGIINIAIHSKKLTNNRIAALIGGFHLKGIERSLLDEAVKKLRELEIEKLYPGHCTGIEEFAYLWSKFGNVEGIHVGKEIKILEHHHHHH”, the “soluble on expression in E. coli” value is reported as “soluble”.

Turning to “NGFDVREGRKLLVGGGSGIVSLYPIADQETDALISAKTRDELIFKDRFPESRRFIATDDGSDGFHGFAHELLQRINIDSYEAIYVCGPEQMMYKVLQVLKGRKVFVQFS”, the “soluble on expression in E. coli” value was “not soluble”.

With “MEKGYRLLERIELGEPKNCYEKVVSHKHLIESIHLHLADLLNTHSGNAMIDSEYGLPDFNDVLSNNTNLVRHIQKNITATIERFEPRLLNVEVHYREDHHNPLQLGFGIRGEVSHNGGKVPMSIDVYMGTD”, the “soluble on expression in E. coli” value is “not soluble”.

Take “METRKAEGEVIVVGAGLAGLVAAAELADAGRRVLILDQEGEQNLGGQAHWSFGGLFFVDSPEQRRLGIRDSLDLARRDWETAAGFDRPEDHWPRKWAEAYLEFAAGEKREWLHRQGMRWFPAVGWAERGGAGAGLPGNSVPRFHITWGTGPGVLEPFVRRVREHQRAGRIEFRFRHRVRGLTLTAGRVTGVHGDVLEPSDVGRGETSSRVVTGDFELTAQAVLITSGGIGGNHELVRRYWPTERLGPAPEVMLSGVPRHVDGLLQQQVVAQGGSLINPDRMWHYTEGVRNWDPVWPQHGIRILPGPSSLWLDPSGRRLPFPHIPGASSYDTLRHITTHGYPHTWFLLNRAVIKREFGLSGSEQNPDLTGKDLRLTLRRASKHVPGPVQAFMDRGEDFVVRDNLRDLVRGMNELTGGELLDYATVEREVLDRDLQVHNVAGKDAQLAIVRGARAILSERLTRVAKPAPLLDPAQGPLIAVRLSVLTRKSLGGLETDLQGRVIGAGGQPLPDLYAAGEVAGFGGGGYHGYRALEGTFLGGCLFSGRAAGRAIAGAL”: the “soluble on expression in E. coli” value was “not soluble”.
